The values that follow come from publication PMC9177745 (Biochemistry, 2022).

In series [1] the target is T1, PhnY (in the 1:1 PhnY/Z system) (uncultured bacterium HF130_AEPn_1, UniProt D0E8I4).
T1 sequence (D0E8I4 1-262): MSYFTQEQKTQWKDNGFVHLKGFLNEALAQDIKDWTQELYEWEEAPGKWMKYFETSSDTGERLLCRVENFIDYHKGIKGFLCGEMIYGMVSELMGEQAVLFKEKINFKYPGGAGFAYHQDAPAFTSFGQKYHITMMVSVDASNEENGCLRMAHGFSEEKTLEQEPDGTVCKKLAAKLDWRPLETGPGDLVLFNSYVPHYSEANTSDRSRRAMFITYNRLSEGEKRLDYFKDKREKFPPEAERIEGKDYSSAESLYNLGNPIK
In words: steady-state kinetics of the coupled PhnY/Z system. It is filed as biochemical. The conditions noted are these: two-enzyme PhnY/Z system; apparent Km of the system.

Substrate in series [2]: NC[C@H](O)P(=O)(O)O
In words: steady-state kinetics, C-P bond cleavage. The conditions noted are these: O2; mixed-valent diiron site. It is filed as biochemical, uncultured bacterium HF130_AEPn_1.

Substrate in series [3]: NCCCP(=O)(O)O
In words: steady-state kinetics, conversion to inorganic phosphate. It is filed as biochemical, Fonsecaea multimorphosa. The note with it: two-step reaction to phosphate; co-substrates presumably as for 2AEP.

Substrate in series [4]: NCCP(=O)(O)O
The series is described as above. It is filed as biochemical, Fonsecaea multimorphosa. The note with it: O2, alpha-ketoglutarate, Fe(II), ascorbate; apparent Km of the two-step reaction.

Substrate in series [5]: NC[C@H](O)P(=O)(O)O
In words: steady-state kinetics, C-P bond cleavage. It is filed as biochemical, Fonsecaea multimorphosa. The note with it: O2; mixed-valent diiron HD-domain site.

On to `NCCCP(=O)(O)O` [3APP], for which the KM result in series [1] is given as “the PhnY/Z system is also able to act on 3APP”.

B1: PhnZ (uncultured bacterium HF130_AEPn_1) (protein)
chain: MSLSNSSKVSVLISLLEKSRDLDYIGEAINQLEHSLQCAYFAQRSGADNEMVLAALLHDLGHYCNDTSFEDMGGYGVWQHEKVGADYLRGLGFSERVACLIEGHVAAKRYLVSSKASYLKNLSDASRKTLEYQGGPMDEGERRLFEEREDFKDCLKIRAWDEKGKQTDLKVPGPEHYRKMMEEHLSENQN
Regarding B1, in series [2], the Michaelis-Menten constant (Km) (commonly the substrate concentration at which the rate is half of its maximum) turned out to be 107 ± 29 µM and the catalytic constant (kcat) – broadly, the maximal rate divided by the concentration of active sites – turned out to be 15 ± 3 s⁻¹.

B2: PhoF (Fonsecaea multimorphosa CBS 102226) (protein)
chain: MSVPEEQMQFFRKNGYLILRNVLSEEETKDLQRWAQEVHDWPTDANSPWMPYEEINAQGQTVLCRTENYANSHAGLNGLLRGQKLLNLLKQLSGEDMLLFKEKINYKLAGSGGFAPHVDSTAYTHIKNIKHLAILLAVDPSDMSNGGLEVVEGSHEMNVPIGEDNCIEPDWVKQQKWTPVELKAGQVLVFGSYLAHRSGANHSNQDRKALYATYNCAREGDLHDEYYAHRKVVWPPAQLRKKGEEYKVGALVYGFGSPMLSVDAGKQLEFDEEEWKSKPRAAKAASRIIDILNQYGNSDYIGEPISQIEHSLQCAYLAAQNMADPQTVAAALLHDIGQIIPERDAEHILGGAQVRSMRQNSGIGADSRSSDSVGRVSHETLGAQYLLALGFPAKVAELVEAHVPAKRYLCATEKGYYSTLSDASKESLRFQGGPMSPDEVRLWQEGSWADEKANLRRWDDGAKVVGLTVPGLETYRPVLEQVLSS
B2: the Michaelis constant (Km) in series [3] amounted to 305 ± 263 µM; in series [4], 197 ± 73 µM; in series [5], 43 ± 23 µM. For the same molecule, the turnover number (kcat) in series [3] was 0.57 ± 0.30 s⁻¹; in series [4] it was 1.16 ± 0.17 s⁻¹; in series [5], 9 ± 2 s⁻¹.
